Measured values taken from paper PMC5394417, “Investigating the molecular mechanism of positive and negative allosteric modulators in the calcium-sensing receptor dimer” (Scientific Reports, 2017).

B1: rat calcium-sensing receptor, wild type (receptor, UniProt P48442 20-1079, looked up)
chain: YGPDQRAQKKGDIILGGLFPIHFGVAAKDQDLKSRPESVECIRYNFRGFRWLQAMIFAIEEINSSPSLLPNMTLGYRIFDTCNTVSKALEATLSFVAQNKIDSLNLDEFCNCSEHIPSTIAVVGATGSGVSTAVANLLGLFYIPQVSYASSSRLLSNKNQYKSFLRTIPNDEHQATAMADIIEYFRWNWVGTIAADDDYGRPGIEKFREEAEERDICIDFSELISQYSDEEEIQQVVEVIQNSTAKVIVVFSSGPDLEPLIKEIVRRNITGRIWLASEAWASSSLIAMPEYFHVVGGTIGFGLKAGQIPGFREFLQKVHPRKSVHNGFAKEFWEETFNCHLQEGAKGPLPVDTFVRSHEEGGNRLLNSSTAFRPLCTGDENINSVETPYMDYEHLRISYNVYLAVYSIAHALQDIYTCLPGRGLFTNGSCADIKKVEAWQVLKHLRHLNFTNNMGEQVTFDECGDLVGNYSIINWHLSPEDGSIVFKEVGYYNVYAKKGERLFINEEKILWSGFSREVPFSNCSRDCQAGTRKGIIEGEPTCCFECVECPDGEYSGETDASACDKCPDDFWSNENHTSCIAKEIEFLAWTEPFGIALTLFAVLGIFLTAFVLGVFIKFRNTPIVKATNRELSYLLLFSLLCCFSSSLFFIGEPQDWTCRLRQPAFGISFVLCISCILVKTNRVLLVFEAKIPTSFHRKWWGLNLQFLLVFLCTFMQILICIIWLYTAPPSSYRNHELEDEIIFITCHEGSLMALGSLIGYTCLLAAICFFFAFKSRKLPENFNEAKFITFSMLIFFIVWISFIPAYASTYGKFVSAVEVIAILAASFGLLACIFFNKVYIILFKPSRNTIEEVRSSTAAHAFKVAARATLRRPNISRKRSSSLGGSTGSIPSSSISSKSNSEDRFPQPERQKQQQPLSLTQQEQQQQPLTLHPQQQQQPQQPRCKQKVIFGSGTVTFSLSFDEPQKNAMAHRNSMRQNSLEAQRSNDTLGRHQALLPLQCADADSEMTIQETGLQGPMVGDHQPEMESSDEMSPALVMSTSRSFVISGGGSSVTENVLHS
notes: calcium-sensing receptor (CaSR), rat; Each copy carries one tag only, HA or myc; the two differently tagged copies were co-expressed; The mGluR5 signal peptide stands upstream of the tag; also called CaSR; WT HA-CaSR; source: HEK293T, transiently transfected (Lipofectamine 2000), on cells; not shown: HA (one copy), N-terminal, kept; myc (the other copy), N-terminal, kept
B2: rat GPRC6A, wild type (receptor, UniProt Q70VB1 21-928, looked up)
chain: CHTPDDFVAITSPGHIMIGGLFAIHEKMLSSDDHPRQPQIQKCVGFEISVFLQTLAMIHSIEMINNSSLLSGVKLGYEIYDTCTEVTAAMAATLRFLSKFNCSRETVIFQCDYSSYVPRVKAIIGAGYSEISMAVSRMLNLQLMPQVSYESTAEILSDKIRFPSFLRTVPSDFYQTKAMAHLIRQSGWNWVGAITTDDDYGRLALNTFAIQAAENNVCIAFKEVLPAFLSDNTIEVRINQTLEKIIAEAQVNVIVVFLRKFHVFNLFNKAIERKISKIWIASDNWSTAAKIITIPNVKKLGKVVGFTFRRGNMSSFHSFLQTLHMYPSDNNKPLHEFAMLFSACKHIKDGDLSQCISNYSQATWTYDTTKTIETHLFKRNDFLWHYTEPGLIHSIQLAVLALGHAIRDLCQDRDCQKPNAFQPWELLAVLKNVTFTDGKNSFHFDAHGDLNTGYEVVLWKETNGLMTVTKMAEYDLQHDVFITTNQETKHEFRKLKQILSKCSKECIPGQMKKATGSQHSCCYECVNCPENHYSNETDMDHCLVCNNETHWAPVRSTMCFEKEVEYLDWDDSLALLLIALSLLGIAFVLAVGIIFTRNLKTPVVKSSGGLVVCYVMLACHALNFASTGFFIGEPQDFTCKTRQTLFGVSFTLCVSCILTKSLKILLAFSFDPTLKTFLKCLYRPVPIVLTCTGIQVVICTLWLVLAAPTVEENTSLPRVIILECEEGSALAFGTMLGYIAVLAFICFVFAFKGRKLPENYNEAKFLTFGMLIYFIAWITFIPVYATTFGKYLPAVEIIVILISNYGILCCTFFPKCYIILCKQKTNTKSVFLQMVYNYSAHSVDSLALSHVSLDSASHSTATTNPRPGNKTAACQNYKHLPVQVLAHTGMEKTMHASKTLHQKRSSSI
notes: GPRC6A, rat; previously described myc-tagged rat GPRC6A-pEGFPN1 construct with the mGluR5 signal peptide upstream of the myc tag; Each copy carries one tag only, HA or myc; the HA-GPRC6A construct is not described; also called WT myc-GPRC6A; WT HA-GPRC6A; source: HEK293T, transiently transfected (Lipofectamine 2000), on cells; not shown: HA (one copy), N-terminal, kept; myc (the other copy), …

Molecular target: the molecule itself
Assay: FRET or BRET; TR-FRET dimerization assay on transiently transfected HEK293T cells co-expressing an HA-tagged and a myc-tagged construct (1:1); Tb3+-conjugated anti-HA antibody (donor, 1 nM) and d2-conjugated anti-myc antibody (acceptor, 50 nM), 24 h at 4 °C; HBSS, 20 mM HEPES, 0.5 mM CaCl2, 0.5 mM MgCl2, 5 mg/mL bovine serum albumin, pH 7.4; FRET ratio (665 nm/615 nm) normalized to pEGFPN1

| Protein | fold increase in FRET signal [fold] |
| --- | --- |
| B1 | 11.8 |
| B2 | 9.8 |
